The data set has as its target human neutrophil peptide (HNP)-1.

human neutrophil peptide (HNP)-1, sequence (chain, as listed by the source): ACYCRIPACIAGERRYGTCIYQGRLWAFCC

B1: recombinant ADP-ribosyltransferase (ART)-1 with a FLAG tag, cloned from a rabbit muscle cDNA library (protein)
chain: QSHLVTRRDLFSQETPLDMAPASFDDQYVGCAAAMTAALPHLNLTEFQVNKVYADGWALASSQWRERSAWGPEWGLSTTRLPPPPAGFRDEHGVALLAYTANSPLHKEFNAAVRQAGRSRAHYLQHFSFKTLHFLLTEALQLLGRDQRMPRCRQVFRGVHGLRFRPAGPGTTVRLGGFASASLKNVAAQQFGEDTFFGIWTCLGVPIQGYSFFPGEEEVLIPPFETFQVINASRPAQGPARIYLKALGKRSSYNCEYIKEMQCKSRPCHLDNS
Regarding B1, the “ADP-ribosylation of HNP-1 by ART-1 with NAD+ (RP-HPLC, MALDI mass spectrometry)” value was “peptides with a mass of 3,983 daltons (retention time 46.5 minutes), consistent with mono-ADP-ribosyl-HNP (calculated mass equivalent to 3,983 daltons), were identified”.

The values above are taken from patent US20060036083.
